Key:
[1] = target: FITC-labeled native contortrostatin (Agkistrodon contortrix contortrix); test: fluorescence polarisation
[2] = target: FITC-labeled vicrostatin (Agkistrodon contortrix contortrix | not stated); test: fluorescence polarisation

Substance | Kd [1] [nM] | Kd [2] [nM]
purified soluble αvβ5 integrin (from UniProt P06756 31-1048; P18084 24-719) (receptor) | 19.5 | 41.2
purified soluble αvβ3 integrin (from UniProt P06756 31-1048; P05106 27-718) (receptor) | 6.6 | 7.4
soluble recombinant α5β1 integrin (from UniProt P08648 42-1049; P05556 21-728) (receptor) | 191 | 15.2
